Data taken from patent US20160367961A1, “METHOD AND COMPOSITION FOR PEPTIDE C[…] PROTEASE TREATMENT” (Roche Sequencing Solutions, Inc., priority 2015, published 2016).

Molecular target: streptavidin, P22629
Assay: SPR, BIAcore X100, streptavidin on CM5 chip, peptide in solution

Sequence of streptavidin, P22629 (P22629 37-163 limits assumed): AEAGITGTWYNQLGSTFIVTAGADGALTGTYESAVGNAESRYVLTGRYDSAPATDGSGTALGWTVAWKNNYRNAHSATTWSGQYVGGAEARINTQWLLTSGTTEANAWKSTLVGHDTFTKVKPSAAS

H-QNDHPQNGGQ-OH
Kd: 320 µM

QNDHPQNGGQ (modifications not checked)
Kd: 10.8 µM

NQPWQ (modifications not checked) [head-to-tail cyclic NQpWQ peptide]
Kd: 61.3 µM

H-LYDHPQNGGQ-OH
Kd: 100 µM

LYDHPQNGGQ (modifications not checked)
Kd: 9.4 µM
